Reference: patent US20220221455A1 (GlaxoSmithKline, published 2022)

Biological target: T1, PE-PilA fusion protein LVL-735 (Haemophilus influenzae)
T1 construct: also called PE-PilA drug substance; PE-PilA DS
T1 chain: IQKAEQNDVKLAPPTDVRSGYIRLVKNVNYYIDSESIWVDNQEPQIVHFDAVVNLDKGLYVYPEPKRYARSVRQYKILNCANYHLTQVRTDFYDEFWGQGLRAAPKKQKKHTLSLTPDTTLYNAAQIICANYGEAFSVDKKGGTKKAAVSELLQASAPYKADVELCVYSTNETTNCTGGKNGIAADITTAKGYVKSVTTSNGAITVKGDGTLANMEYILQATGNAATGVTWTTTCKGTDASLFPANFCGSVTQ
Test: HDX-MS, antibody/antigen complex at molar ratio 1:1

B1: PEPilA/3 mAb (antibody, V domains shown)
VH: QGQLQQSGPELVKPGASVKMSCKASGYTFTDYVISWVKQRIGQGLEWIGEIHPGSGSIHYNEKFKGKATLTADKSSNTAYMQLSSLTSEDSAVYFCARRGLRRPWFAYWGQGTLVTVSA
VL: DIVLTQSPASLAVSLGQRATISCRASKSVSTSGYSYMHWFQQKPGQPPKLLIYLASNLESGVPARFSGSGSGTDFTLNIHPVEEEDAATYYCQHSRELPLTFGAGTKLELK
notes: Mouse anti-PilA monoclonal antibody; The isotype appears only as 'optionally an IgG2A' in an embodiment; It was biotinylated when used as detection antibody in the sandwich ELISA; also called mAb PEPilA/3; PilA mAb
**Q.** Does B1 bind?
**A.** Result: binds
